Measured values taken from PMC4870115 (Biochemistry, 2016).

Biological target: the molecule itself
Assay: crystal structure

B1: ToxA of Burkholderia glumae (enzyme)
chain: MSTTARYDSIGGLFEDFTQSAAQRAIEVRTIFHMIGDVSGKSVLDLACGFGFFGREIYRRGAAKVVGVDISEKMIELAREESRKYGDPLEFHVRDVANMEPLGQFDLVNAAWLFNYADSVENLRKMFKVVRASLKPDGKLVAYTVDPDFSLAKGNFAKYGVNVLNERAWGPGYRHDAEFVTDPPSQFSFYRWSRADYESAIADAGFSHFEWQKPLLEADDIATHPPGFWDVFQNNCLQTGLVCKP
- stoichiometry N: 4
